Results: article PMC8139589, “A flexible multiplexed immunosensor for point-of-care in situ wound monitoring”

Legend:
IL-6 = IL-6 (human, UniProt P05231 30-212); experiment: electrochemical aptasensor (SWV); serum; 0-30 ng/ml; Serum as wound-exudate mimic; about 30 min incubation to equilibrium; aptamers immobilized at 10 uM in TE buffer, MCH passivation; assay pH and temperature not; conditions: protein: commercial; label: 5' C6 thiol; 3' methylene blue; hairpin
TNF-alpha = TNF-alpha (human, UniProt P01375 77-233); experiment: electrochemical aptasensor (SWV); serum; 0-2 ng/ml; Serum as wound-exudate mimic; about 30 min incubation to equilibrium; aptamers immobilized at 10 uM in TE buffer, MCH passivation; assay pH and temperature not; conditions: protein: commercial; chain copies: 3; label: 5' methylene blue; 3' C3 thiol; hairpin
IL-8 = IL-8 (human, UniProt P10145 28-99); experiment: electrochemical aptasensor (SWV); serum; 0-30 ng/ml; Serum as wound-exudate mimic; about 30 min incubation to equilibrium; aptamers immobilized at 10 uM in TE buffer, MCH passivation; assay pH and temperature not; conditions: protein: commercial; label: 5' C6 thiol; 3' methylene blue; hairpin
Sequence of IL-8 (P10145 28-99): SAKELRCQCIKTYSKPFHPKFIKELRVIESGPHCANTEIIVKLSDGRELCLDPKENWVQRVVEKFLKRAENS

Sequence of IL-6 (P05231 30-212): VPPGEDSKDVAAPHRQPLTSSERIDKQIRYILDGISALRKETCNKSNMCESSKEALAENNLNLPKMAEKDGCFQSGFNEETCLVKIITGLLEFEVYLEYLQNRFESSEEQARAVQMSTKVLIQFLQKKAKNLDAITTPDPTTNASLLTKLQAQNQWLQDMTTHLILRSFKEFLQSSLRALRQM
Sequence of TNF-alpha (P01375 77-233): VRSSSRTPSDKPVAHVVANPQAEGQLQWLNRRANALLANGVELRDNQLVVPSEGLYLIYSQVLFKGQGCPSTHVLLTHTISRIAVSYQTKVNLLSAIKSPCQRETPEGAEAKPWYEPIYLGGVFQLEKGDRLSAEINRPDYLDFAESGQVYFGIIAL

GGTGGCAGGAGGACTATTTATTTGCTTTTCT (structured_DNA) [IL-6 aptamer]: binds (IL-6).

GGAGUAUCUGAUGACAAUUCGGAGCUCC (structured_RNA, phosphorothioate at all linkages) [TNF-alpha aptamer]: binds (TNF-alpha).

GGGGGCUUAUCAUUCCAUUUAGUGUUAUGAUAACC (structured_RNA, none printed (ribo)) [IL-8 aptamer]: binds (IL-8).
